T1: FcRL2, overexpressed on 3T3 cells (UniProt Q96LA5 20-508, limits assumed)
T1 construct: whole, on cells
T1 sequence (looked up): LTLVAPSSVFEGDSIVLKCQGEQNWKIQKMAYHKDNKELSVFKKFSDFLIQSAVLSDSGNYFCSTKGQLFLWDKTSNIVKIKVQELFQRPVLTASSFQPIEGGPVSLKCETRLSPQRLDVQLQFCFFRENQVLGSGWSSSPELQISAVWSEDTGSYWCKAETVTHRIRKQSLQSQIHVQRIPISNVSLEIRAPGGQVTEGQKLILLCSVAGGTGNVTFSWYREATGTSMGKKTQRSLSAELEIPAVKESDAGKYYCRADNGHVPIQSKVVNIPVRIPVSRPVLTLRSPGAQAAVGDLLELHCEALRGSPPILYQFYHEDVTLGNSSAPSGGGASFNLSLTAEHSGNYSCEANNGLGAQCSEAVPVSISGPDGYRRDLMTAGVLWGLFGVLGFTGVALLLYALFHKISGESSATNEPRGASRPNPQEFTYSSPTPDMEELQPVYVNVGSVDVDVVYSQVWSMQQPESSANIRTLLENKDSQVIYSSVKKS

T2: Fc Receptor-like 5 (FcRL5), full length, overexpressed on 3T3 or Raji cells (human, UniProt Q96RD9 16-977)
T2 construct: also called 3T3-FcRL5
T2 sequence: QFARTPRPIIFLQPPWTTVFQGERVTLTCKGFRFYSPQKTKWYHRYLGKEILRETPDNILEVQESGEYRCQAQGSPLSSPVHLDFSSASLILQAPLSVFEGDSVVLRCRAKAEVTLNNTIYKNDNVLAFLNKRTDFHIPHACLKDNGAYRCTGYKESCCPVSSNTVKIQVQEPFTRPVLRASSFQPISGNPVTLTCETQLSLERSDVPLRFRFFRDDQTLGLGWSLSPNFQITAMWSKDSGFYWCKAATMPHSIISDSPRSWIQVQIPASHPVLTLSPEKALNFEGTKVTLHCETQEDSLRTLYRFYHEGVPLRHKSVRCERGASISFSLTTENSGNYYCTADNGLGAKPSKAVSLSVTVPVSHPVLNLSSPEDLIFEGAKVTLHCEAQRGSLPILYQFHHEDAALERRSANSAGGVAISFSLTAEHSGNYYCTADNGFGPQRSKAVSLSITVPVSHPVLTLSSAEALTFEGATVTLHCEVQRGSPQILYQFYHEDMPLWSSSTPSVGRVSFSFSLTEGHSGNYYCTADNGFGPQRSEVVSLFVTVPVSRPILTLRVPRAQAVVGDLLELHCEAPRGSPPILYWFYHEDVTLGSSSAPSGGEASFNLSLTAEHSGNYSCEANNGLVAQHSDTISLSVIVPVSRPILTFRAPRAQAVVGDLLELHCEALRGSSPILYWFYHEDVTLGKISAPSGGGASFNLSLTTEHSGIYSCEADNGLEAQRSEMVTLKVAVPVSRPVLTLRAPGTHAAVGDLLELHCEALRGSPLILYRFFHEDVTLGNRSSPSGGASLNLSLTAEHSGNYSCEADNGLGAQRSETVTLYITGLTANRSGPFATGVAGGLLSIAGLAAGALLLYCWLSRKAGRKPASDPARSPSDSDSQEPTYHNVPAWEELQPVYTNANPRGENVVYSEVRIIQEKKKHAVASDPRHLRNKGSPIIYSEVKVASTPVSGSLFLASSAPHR


Experiments:
[1] = target: T1, FcRL2, overexpressed on 3T3 cells; test: phage clone on 3T3-FcRL2 cells
[2] = target: T2, Fc Receptor-like 5 (FcRL5), full …; test: phage clone screening on cells
Outline: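 Cell-surface binding was read by flow cytometry using anti-M13 coat protein mAb and PE-labelled anti-mouse Ig. Selected scFv phage were screened on FcRL5-overexpressing 3T3 cells, with 3T3 lines bearing FcRL1, 2, 3, 4 or 6 as negative controls.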

[3] = target: SLAMF9 protein (UniProt Q96A28 19-236, limits assumed); test: phage clone on SLAMF9 protein
Chain of SLAMF9 protein (Q96A28 19-236 limits assumed): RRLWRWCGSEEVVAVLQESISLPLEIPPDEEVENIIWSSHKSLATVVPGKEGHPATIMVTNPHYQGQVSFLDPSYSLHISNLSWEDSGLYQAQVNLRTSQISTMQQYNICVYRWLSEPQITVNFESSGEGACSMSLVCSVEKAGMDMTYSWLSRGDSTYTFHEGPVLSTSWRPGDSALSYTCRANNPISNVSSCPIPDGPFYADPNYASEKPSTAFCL

| Binder | binding result [1] | binding result [2] | binding result [3] |
| --- | --- | --- | --- |
| ET200-108 (scFv, screened as phage clone; entry is VL-linker-VH-His tag-HA tag) scFv: QSVLTQPPSVSAPPGQKVTISCSGSSSNIGNNYVSWYQQFPGTAPKLLIYDNNKRPSGISDRFSGSKSGTSATLGIAGLQTGDEADYYCGTWDTSLSGFYVFGSGTKVTVLGSRGGGGSGGGGSGGGGSLEMAEVQLVQSGAEVKKPGASVKVSCKASGYTFTSYTISWVRQAPGQGLEWMGWISTYNGLTNYAQNLQGRVTMTTDTFTTTAYMELRSLRSDDTAVYYCVREGSPDYGDFASFDYWGQGTLVTVSSTSGQAGQHHHHHHGAYPYDVPDYAS | no binding | binds | no binding |
| ET200-107 (scFv, screened as phage clone; entry is VL-linker-VH-His tag-HA tag) scFv: QSVVTQPPSVSAAPGEKVTISCSGSNFNVGNNDVSWYQQLPGAAPKLLIYDNNKRPSGIPDRFSGSKSGTSATLDITGLHSDDEADYYCGTWDSSLNTGGVFGTGTKVTVLGSRGGGGSGGGGSGGGGSLEMAEVQLVQSGAEVKKPGASVKVSCKASGYTFTSYTISWVRQAPGQGLEWMGWISTYNGLTNYAQNLQGRVTMTTDTFTTTAYMELRSLRSDDTAVYYCVREGSPDYGDFASFDYWGQGTLVTVSSTSGQAGQHHHHHHGAYPYDVPDYAS | no binding | binds | no binding |
| ET200-007 (scFv, screened as phage clone; entry is VL-linker-VH-His tag-HA tag) scFv: SYVLTQPLSVSVAPGKTARITCGGNNIGSKTVHWYQQKPGQAPVLVIYYDSDRPSGIPERFSGSNSGNTATLTISRVEAGDEADYYCQVWDSSSDHRVFGGGTKLTVLGSRGGGGSGGGGSGGGGSLEMAQVQLQESGPGLVKPSETLSLTCNVSGYSISSGYFWGWIRQPPGKGLEWIGSIYHSRSTYYNPSLKSRVTISVDTSKNQFSLKLNSVTAADTAVYYCARGYGYFDYWGQGTLVTVSSTSGQAGQHHHHHHGAYPYDVPDYAS | no binding | binds | no binding |
| ET200-006 (scFv, screened as phage clone; entry is VL-linker-VH-His tag-HA tag) scFv: SYVLTQPPSVSVAPGKTARITCGGNNIGSKSVHWYQQKPGQAPVVVIHYDSDRPSGIPERFSGSNSGNTATLTISRVEAGDEADYYCQVWDSSSDHPYVFGTGTKVTVLGSRGGGGSGGGGSGGGGSLEMAEVQLVQSGAEVKKPGASVKVSCKASGYTFTTYGISWVRQAPGQGLEWMGWINTYNGHTNYAQKLQGRATMTADTSTNTAYMELRSLRSDDTAVYYCARVIYGSGDYWGQGTLVTVSSTSGQAGQHHHHHHGAYPYDVPDYAS | no binding | binds | no binding |
| ET200-101 (scFv, screened as phage clone; entry is VL-linker-VH-His tag-HA tag) scFv: QAVLTQPPSASGAPGQRVTVSCSGSNSNIGSNYVNWYQQFPGTAPKLLMYSSSQRPSGVPDRFSGSKSGTSASLAISGLHSEDEADYYCATWDDSLNAWVFGGGTKLTVLGSRGGGGSGGGGSGGGGSLEMAEVQLVQSGAEVRKPGASVKVSCKTSGYTFTWYAIHWVRQAPGQRLEWMGWINAGSGNTKYSQKFQGRVTLTRDTSASTAYMELSSLRSDDTAVYYCARPNNYGSGGDVFDIWGQGTMVTVSSTSGQAGQHHHHHHGAYPYDVPDYAS | no binding | binds | no binding |
| ET200-106 (scFv, screened as phage clone; entry is VL-linker-VH-His tag-HA tag) scFv: SYELTQPPAASGTPGQRVTISCSGGVSNIGSGALNWYQQLPGTAPKLLIYSYNQRPSGVSDRFSGSRSATSASLAISGLQSEDEADYYCATWDDSVNGWVFGGGTKLTVLGSRGGGGSGGGGSGGGGSLEMAEVQLVESGAEVKKPGDSVKVSCKPSGYNFLNYGINWVRQAPGQGLEWMGWISTYTGNTNYAQKLQGRVTFTTDTSTSTAYMEMRSLRSDDTAVYYCARQQGGGWYDVWGQGTLVTVSSTSGQAGQHHHHHHGAYPYDVPDYAS | no binding | binds | no binding |
| ET200-100 (scFv, screened as phage clone; entry is VL-linker-VH-His tag-HA tag) scFv: NFMLTQPHSVSESPGKTVTISCTRSSGSIASNFVQWYQQRPGSAPTPMIYEDNNRPPGVPDRFSASVDSSSNSASLTISGLKTEDEADYYCQSYDTSNVVFGGGTKLTVLGSRGGGGSGGGGSGGGGSLEMAEVQLVESGGGLVQPGGSLRLSCAASGFTFSSYEMNWVRQAPGKGLEWVSYISSSGSTIYYADSVKGRFTISRDNAKNSLYLQMNSLRAEDTAVYYCARWDYGMDVWGQGTTVTVSSTSGQAGQHHHHHHGAYPYDVPDYAS | no binding | binds | no binding |
| ET200-104 (scFv, screened as phage clone; entry is VL-linker-VH-His tag-HA tag) scFv: NFMLTQPHSVSESPGKTVTISCTRSSGSIASNYVQWYQQRPGSAPTTVIYEDNQRPSGVPDRFSGSIDSSSNSASLTISGLKTEDEADYYCQSYDSSNVVFGGGTKVTVLGSRGGGGSGGGGSGGGGSLEMAEVQLVESGGGLVQPGGSLRLSCAASGFTFSSYEMNWVRQAPGKGLEWVSYISSSGSTIYYADSVKGRFTISRDNAKNSLYLQMNSLRAEDTAVYYCARWDYGMDVWGQGTTVTVSSTSGQAGQHHHHHHGAYPYDVPDYAS | no binding | binds | no binding |
| ET200-102 (scFv, screened as phage clone; entry is VL-linker-VH-His tag-HA tag) scFv: QSVVTQPPSVSAAPGQKVTISCSGSSSNIGNNYVSWYQQLPGTAPKLLIYDNNKRPSGIPDRFSGSKSGTSATLGITGLQTGDEADYYCGTWDSSLSAYVFGTGTKVTVLGSRGGGGSGGGGSGGGGSLEMAQVQLVQSGAEVKKPGASVKVSCKASGYTFTNYALHWVRQAPGQGLEWMAWINGGNGNTKYSQNFQGRVTITRDTSASTAYMELSSLRSEDTAVYYCAKPEETAGTIHFDYWGQGTPVTVSSTSGQAGQHHHHHHGAYPYDVPDYAS | no binding | binds | no binding |
| ET200-099 (scFv, screened as phage clone; entry is VL-linker-VH-His tag-HA tag) scFv: QSVLTQPPSASGTPGQRVTISCSGSSSNIGSNTVNWYQQLPGTAPKLLIYSNDQRPSGVPDRFSGSKSGTSASLAISGLQSEDEADYYCASWDDSLNGRYVFGTGTKVTVLGSRGGGGSGGGGSGGGGSLEMAQVQLVQSGAEVRKPGASVKVSCKTSGYTFSWYAIHWVRQAPGQRLEWMGWINAGNGNTKYSQKFQGRVSLTRDTSASTAYMELSSLRSDDTAVYYCARPDNYGSGGDVFDIWGQGTMVTVSSTSGQAGQHHHHHHGAYPYDVPDYAS | no binding | binds | no binding |
| ET200-105 (scFv, screened as phage clone; entry is VL-linker-VH-His tag-HA tag) scFv: SYVLTQPPSVSVSPGQTASITCSGDRLTNKYVSWYQQKPGQSPVLVIYEDAKRPSGIPARFSGSNSGNTATLTISGTQAMDESEYYCQAWDSSVVVFGGGTKLTVLGSRGGGGSGGGGSGGGGSLEMAEVQLVESGGGLVQPGRSLRLSCAASGFTFDDYAMHWVRQAPGKGLEWVSGISWNSGSIGYADSVKGRFTISRDNAKNSLYLQMNSLRDEDTALYYCAKDRGGGVIVKDAFDIWGQGTMVTVSSTSGQAGQHHHHHHGAYPYDVPDYAS | no binding | binds | no binding |
| ET200-103 (scFv, screened as phage clone; entry is VL-linker-VH-His tag-HA tag) scFv: QAVLTQPHSVSESPGKTVTISCTRSSGSIASNYVQWYQQRPGSAPTTVIYEDNQRPSGVPDRFSGSIDSSSNSASLTISGLKTEDEADYYCQSYDSTITVFGGGTKLTVLGSRGGGGSGGGGSGGGGSLEMAQVQLVQSGAEVKKPGSSVKVSCKASGGTFSSYAISWVRQAPGQGLEWMGGIIPIFGTANYAQKFQGRVTITADESTSTAYMELSSLRSEDTAVYYCAGEGYYDSSGYSNGDAFDIWGQGTMVTVSSTSGQAGQHHHHHHGAYPYDVPDYAS | no binding | binds | no binding |
